# Experimental data as given in patent US20150344570A1 (published 2015).
# B1: GpH7-B3 variant Y300_01G/GpL16-k0 (homodimerized antibody, Ho Ab) (antibody, human IgG1, kappa)
# heavy: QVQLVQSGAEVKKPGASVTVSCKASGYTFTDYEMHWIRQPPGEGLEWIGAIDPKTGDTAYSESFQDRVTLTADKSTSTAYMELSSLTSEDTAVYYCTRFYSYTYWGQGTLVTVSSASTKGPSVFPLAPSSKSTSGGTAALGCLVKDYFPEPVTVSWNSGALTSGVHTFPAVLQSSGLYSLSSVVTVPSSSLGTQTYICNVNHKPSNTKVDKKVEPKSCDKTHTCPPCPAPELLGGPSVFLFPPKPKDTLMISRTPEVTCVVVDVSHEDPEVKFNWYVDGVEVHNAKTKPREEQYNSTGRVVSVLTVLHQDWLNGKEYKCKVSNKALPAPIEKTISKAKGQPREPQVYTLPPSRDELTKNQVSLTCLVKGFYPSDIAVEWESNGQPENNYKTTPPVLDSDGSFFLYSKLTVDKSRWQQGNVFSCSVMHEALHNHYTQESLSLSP
# light: DIVMTQSPLSLPVTPGEPASISCQASESLVHSNRNTYLHWYLQKPGQSPQLLIYKVSNRFSGVPDRFSGSGSGTDFTLKISRVEAEDVGVYYCSQNTHVPPTFGQGTKVEIERTVAAPSVFIFPPSDEQLKSGTASVVCLLNNFYPREAKVQWKVDNALQSGNSQESVTEQDSKDSTYSLSSTLTLSKADYEKHKVYACEVTHQGLSSPVTKSFNRGEC
# notes: Anti-glypican-3 IgG1 (G1d with K439E); same alteration in both H chains
# B2: GpH7-A5/GpH7-B3 variant Y300_01G/GpL16-k0 (heterodimerized antibody, He Ab) (antibody, human IgG1, kappa)
# heavy 1: not shown
# heavy 2: not shown
# light: B1 light
# notes: Anti-glypican-3 IgG1; alteration only in the GpH7-B3 (K439E) chain; other H chain is GpH7-A5 (D356K/H435R)
# B3: GpH7-B3 variant Y296_13S/GpL16-k0 (homodimerized antibody, Ho Ab) (antibody, human IgG1, kappa)
# heavy: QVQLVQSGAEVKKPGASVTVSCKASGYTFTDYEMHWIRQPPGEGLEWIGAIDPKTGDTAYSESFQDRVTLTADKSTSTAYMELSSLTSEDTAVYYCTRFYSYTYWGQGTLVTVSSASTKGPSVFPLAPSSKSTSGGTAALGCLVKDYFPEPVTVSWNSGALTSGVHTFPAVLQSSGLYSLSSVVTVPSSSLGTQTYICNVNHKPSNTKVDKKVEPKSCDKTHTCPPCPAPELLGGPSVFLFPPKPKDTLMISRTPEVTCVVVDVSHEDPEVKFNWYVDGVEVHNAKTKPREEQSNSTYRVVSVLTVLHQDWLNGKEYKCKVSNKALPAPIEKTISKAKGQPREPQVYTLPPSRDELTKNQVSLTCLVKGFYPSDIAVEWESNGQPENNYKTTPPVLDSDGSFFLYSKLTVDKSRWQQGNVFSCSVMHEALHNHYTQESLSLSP
# light: B1 light
# notes: as for B1
# B4: GpH7-A5/GpH7-B3 variant Y296_14T/GpL16-k0 (heterodimerized antibody, He Ab) (antibody, human IgG1, kappa)
# heavy 1: not shown
# heavy 2: not shown
# light: B1 light
# notes: as for B2
# B5: GpH7-A5/GpH7-B3 variant Y296_19Q/GpL16-k0 (heterodimerized antibody, He Ab) (antibody, human IgG1, kappa)
# heavy 1: not shown
# heavy 2: not shown
# light: B1 light
# notes: as for B2
# B6: GpH7-A5/GpH7-B3 variant Y296_10E/GpL16-k0 (heterodimerized antibody, He Ab) (antibody, human IgG1, kappa)
# heavy 1: not shown
# heavy 2: not shown
# light: B1 light
# notes: as for B2
# B7: GpH7-B3 variant T335_19Q/GpL16-k0 (homodimerized antibody, Ho Ab) (antibody, human IgG1, kappa)
# heavy: not shown
# light: B1 light
# notes: as for B1
# B8: GpH7-A5/GpH7-B3 variant T335_16H/GpL16-k0 (heterodimerized antibody, He Ab) (antibody, human IgG1, kappa)
# heavy 1: not shown
# heavy 2: not shown
# light: B1 light
# notes: as for B2
# B9: GpH7-B3 variant T335_20W/GpL16-k0 (homodimerized antibody, Ho Ab) (antibody, human IgG1, kappa)
# heavy: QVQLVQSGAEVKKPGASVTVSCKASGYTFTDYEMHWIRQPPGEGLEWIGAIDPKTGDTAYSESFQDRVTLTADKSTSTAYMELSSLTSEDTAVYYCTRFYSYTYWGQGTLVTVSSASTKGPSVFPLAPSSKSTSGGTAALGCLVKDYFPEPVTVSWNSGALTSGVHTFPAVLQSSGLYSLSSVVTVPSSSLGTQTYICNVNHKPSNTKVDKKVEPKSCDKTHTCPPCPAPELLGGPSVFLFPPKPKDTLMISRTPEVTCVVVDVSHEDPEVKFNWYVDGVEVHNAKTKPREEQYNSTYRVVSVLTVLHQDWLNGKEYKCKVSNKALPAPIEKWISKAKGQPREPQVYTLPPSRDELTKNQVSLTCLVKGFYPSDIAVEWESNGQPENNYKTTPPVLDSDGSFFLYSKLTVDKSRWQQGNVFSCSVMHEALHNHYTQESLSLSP
# light: B1 light
# notes: as for B1
# B10: GpH7-A5/GpH7-B3 variant Y300_19Q/GpL16-k0 (heterodimerized antibody, He Ab) (antibody, human IgG1, kappa)
# heavy 1: not shown
# heavy 2: not shown
# light: B1 light
# notes: as for B2
# B11: GpH7-B3 variant Y300_19Q/GpL16-k0 (homodimerized antibody, Ho Ab) (antibody, human IgG1, kappa)
# heavy: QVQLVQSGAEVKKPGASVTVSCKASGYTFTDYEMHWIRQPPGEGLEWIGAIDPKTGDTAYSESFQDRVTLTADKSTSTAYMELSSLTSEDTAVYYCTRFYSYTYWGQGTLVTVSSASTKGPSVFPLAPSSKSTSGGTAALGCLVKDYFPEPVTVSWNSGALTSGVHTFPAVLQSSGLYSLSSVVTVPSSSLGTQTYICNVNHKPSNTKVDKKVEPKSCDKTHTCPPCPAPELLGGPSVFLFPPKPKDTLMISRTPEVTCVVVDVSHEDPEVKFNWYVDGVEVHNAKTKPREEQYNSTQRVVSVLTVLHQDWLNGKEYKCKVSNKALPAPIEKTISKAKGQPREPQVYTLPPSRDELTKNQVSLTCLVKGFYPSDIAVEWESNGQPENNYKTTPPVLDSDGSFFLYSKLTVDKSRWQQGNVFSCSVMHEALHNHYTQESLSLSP
# light: B1 light
# notes: as for B1
# B12: GpH7-B3 variant Y296_10E/GpL16-k0 (homodimerized antibody, Ho Ab) (antibody, human IgG1, kappa)
# heavy: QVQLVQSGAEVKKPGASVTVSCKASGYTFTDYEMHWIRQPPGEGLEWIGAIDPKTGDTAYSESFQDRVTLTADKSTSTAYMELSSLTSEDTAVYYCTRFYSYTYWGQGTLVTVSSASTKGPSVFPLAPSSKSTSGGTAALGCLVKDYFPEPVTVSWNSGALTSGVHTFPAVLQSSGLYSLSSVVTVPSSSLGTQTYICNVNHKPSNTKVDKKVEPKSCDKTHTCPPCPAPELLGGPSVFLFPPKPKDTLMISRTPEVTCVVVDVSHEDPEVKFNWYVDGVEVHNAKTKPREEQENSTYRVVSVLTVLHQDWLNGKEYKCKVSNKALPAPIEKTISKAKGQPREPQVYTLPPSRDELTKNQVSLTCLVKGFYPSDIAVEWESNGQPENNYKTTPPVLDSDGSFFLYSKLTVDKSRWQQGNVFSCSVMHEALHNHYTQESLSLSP
# light: B1 light
# notes: as for B1
# B13: GpH7-B3 variant Y296_16H/GpL16-k0 (homodimerized antibody, Ho Ab) (antibody, human IgG1, kappa)
# heavy: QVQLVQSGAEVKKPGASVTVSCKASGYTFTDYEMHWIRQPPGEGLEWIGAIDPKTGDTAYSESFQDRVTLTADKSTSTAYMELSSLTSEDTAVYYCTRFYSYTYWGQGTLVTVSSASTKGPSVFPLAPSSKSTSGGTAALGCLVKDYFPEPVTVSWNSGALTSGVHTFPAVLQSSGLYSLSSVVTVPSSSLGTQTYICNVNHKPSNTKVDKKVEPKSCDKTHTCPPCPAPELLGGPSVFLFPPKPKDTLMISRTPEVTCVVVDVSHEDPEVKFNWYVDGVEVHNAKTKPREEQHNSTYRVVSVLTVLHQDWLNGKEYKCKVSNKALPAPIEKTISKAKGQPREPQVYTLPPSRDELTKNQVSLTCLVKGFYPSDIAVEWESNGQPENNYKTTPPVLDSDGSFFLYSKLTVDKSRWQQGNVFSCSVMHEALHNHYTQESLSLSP
# light: B1 light
# notes: as for B1
# B14: GpH7-A5/GpH7-B3 variant Y300_20W/GpL16-k0 (heterodimerized antibody, He Ab) (antibody, human IgG1, kappa)
# heavy 1: not shown
# heavy 2: not shown
# light: B1 light
# notes: as for B2
# B15: GpH7-B3 variant Y300_11K/GpL16-k0 (homodimerized antibody, Ho Ab) (antibody, human IgG1, kappa)
# heavy: not shown
# light: B1 light
# notes: as for B1
# B16: GpH7-B3 variant Y300_20W/GpL16-k0 (homodimerized antibody, Ho Ab) (antibody, human IgG1, kappa)
# heavy: not shown
# light: B1 light
# notes: as for B1
# B17: GpH7-A5/GpH7-B3 variant Y300_03V/GpL16-k0 (heterodimerized antibody, He Ab) (antibody, human IgG1, kappa)
# heavy 1: not shown
# heavy 2: not shown
# light: B1 light
# notes: as for B2
# B18: GpH7-A5/GpH7-B3 variant T335_19Q/GpL16-k0 (heterodimerized antibody, He Ab) (antibody, human IgG1, kappa)
# heavy 1: not shown
# heavy 2: not shown
# light: B1 light
# notes: as for B2
# B19: GpH7-B3 variant Y296_14T/GpL16-k0 (homodimerized antibody, Ho Ab) (antibody, human IgG1, kappa)
# heavy: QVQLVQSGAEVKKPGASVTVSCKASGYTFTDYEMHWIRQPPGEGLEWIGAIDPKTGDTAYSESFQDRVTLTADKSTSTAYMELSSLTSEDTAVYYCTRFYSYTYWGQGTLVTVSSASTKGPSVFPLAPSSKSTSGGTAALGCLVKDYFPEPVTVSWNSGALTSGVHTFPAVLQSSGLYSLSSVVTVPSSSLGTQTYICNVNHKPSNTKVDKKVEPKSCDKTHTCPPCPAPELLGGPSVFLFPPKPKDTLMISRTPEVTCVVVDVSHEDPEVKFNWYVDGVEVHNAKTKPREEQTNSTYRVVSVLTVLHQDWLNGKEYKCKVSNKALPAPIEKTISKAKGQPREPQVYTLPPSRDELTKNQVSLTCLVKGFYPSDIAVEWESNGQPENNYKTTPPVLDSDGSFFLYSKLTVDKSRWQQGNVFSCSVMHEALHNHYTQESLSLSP
# light: B1 light
# notes: as for B1
# B20: GpH7-A5/GpH7-B3 variant T335_18N/GpL16-k0 (heterodimerized antibody, He Ab) (antibody, human IgG1, kappa)
# heavy 1: not shown
# heavy 2: not shown
# light: B1 light
# notes: as for B2
# B21: GpH7-B3 variant Y300_06M/GpL16-k0 (homodimerized antibody, Ho Ab) (antibody, human IgG1, kappa)
# heavy: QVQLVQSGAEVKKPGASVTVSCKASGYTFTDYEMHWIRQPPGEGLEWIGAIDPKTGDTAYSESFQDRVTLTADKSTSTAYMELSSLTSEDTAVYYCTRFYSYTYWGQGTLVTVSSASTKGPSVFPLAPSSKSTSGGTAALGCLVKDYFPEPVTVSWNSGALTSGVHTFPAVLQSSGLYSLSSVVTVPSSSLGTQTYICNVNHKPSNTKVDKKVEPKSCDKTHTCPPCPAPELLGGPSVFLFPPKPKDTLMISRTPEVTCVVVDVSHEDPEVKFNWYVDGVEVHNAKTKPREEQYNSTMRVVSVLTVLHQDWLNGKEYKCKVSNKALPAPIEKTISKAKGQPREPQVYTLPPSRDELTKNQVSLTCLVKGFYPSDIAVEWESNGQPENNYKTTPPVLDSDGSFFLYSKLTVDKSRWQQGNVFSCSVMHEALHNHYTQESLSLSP
# light: B1 light
# notes: as for B1
# B22: GpH7-B3 variant Y300_13S/GpL16-k0 (homodimerized antibody, Ho Ab) (antibody, human IgG1, kappa)
# heavy: not shown
# light: B1 light
# notes: as for B1
# B23: GpH7-B3 variant T335_18N/GpL16-k0 (homodimerized antibody, Ho Ab) (antibody, human IgG1, kappa)
# heavy: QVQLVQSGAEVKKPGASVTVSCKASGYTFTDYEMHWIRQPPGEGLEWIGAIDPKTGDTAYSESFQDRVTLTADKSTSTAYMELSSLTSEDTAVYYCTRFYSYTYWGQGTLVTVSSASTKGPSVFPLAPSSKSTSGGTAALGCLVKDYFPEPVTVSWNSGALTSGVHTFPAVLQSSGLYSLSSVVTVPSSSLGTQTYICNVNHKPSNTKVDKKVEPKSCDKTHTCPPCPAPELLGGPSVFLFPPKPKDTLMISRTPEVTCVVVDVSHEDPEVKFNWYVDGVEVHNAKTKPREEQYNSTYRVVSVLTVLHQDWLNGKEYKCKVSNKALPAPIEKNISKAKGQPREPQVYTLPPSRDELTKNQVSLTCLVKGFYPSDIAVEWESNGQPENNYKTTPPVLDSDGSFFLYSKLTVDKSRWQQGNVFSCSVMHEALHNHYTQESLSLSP
# light: B1 light
# notes: as for B1
# B24: GpH7-B3 variant Y296_18N/GpL16-k0 (homodimerized antibody, Ho Ab) (antibody, human IgG1, kappa)
# heavy: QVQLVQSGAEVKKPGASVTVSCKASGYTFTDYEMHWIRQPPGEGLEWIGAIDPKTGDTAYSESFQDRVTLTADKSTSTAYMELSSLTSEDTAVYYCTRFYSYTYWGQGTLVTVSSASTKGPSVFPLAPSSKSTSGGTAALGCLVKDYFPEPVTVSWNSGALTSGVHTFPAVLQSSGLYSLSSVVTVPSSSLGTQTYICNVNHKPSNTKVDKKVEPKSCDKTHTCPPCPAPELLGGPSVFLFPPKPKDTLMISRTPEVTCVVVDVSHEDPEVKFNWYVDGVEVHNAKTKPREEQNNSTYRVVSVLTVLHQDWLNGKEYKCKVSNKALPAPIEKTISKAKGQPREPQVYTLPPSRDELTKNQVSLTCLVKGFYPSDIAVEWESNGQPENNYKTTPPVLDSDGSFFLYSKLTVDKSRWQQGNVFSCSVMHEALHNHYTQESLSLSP
# light: B1 light
# notes: as for B1
# B25: GpH7-B3 variant Y296_12R/GpL16-k0 (homodimerized antibody, Ho Ab) (antibody, human IgG1, kappa)
# heavy: not shown
# light: B1 light
# notes: as for B1
# B26: GpH7-B3 variant Y300_10E/GpL16-k0 (homodimerized antibody, Ho Ab) (antibody, human IgG1, kappa)
# heavy: not shown
# light: B1 light
# notes: as for B1
# Assays:
# FcγRIa [1] = target: T1, FcγRIa (human, UniProt P12314 16-292); assay: SPR (Biacore), antibody captured on antigen-peptide chip, FcγRIa as analyte; binding activity relative to control GpH7-B3/GpL16-k0 (HoCon Ab) x100
# T1 construct: extracellular domain; Soluble extracellular domain with C-terminal His tag, expressed in FreeStyle293 cells; analyte in Biacore; also called FcgRI; CD64; not shown: His tag attached to the C terminus
# T1 sequence (P12314 16-292): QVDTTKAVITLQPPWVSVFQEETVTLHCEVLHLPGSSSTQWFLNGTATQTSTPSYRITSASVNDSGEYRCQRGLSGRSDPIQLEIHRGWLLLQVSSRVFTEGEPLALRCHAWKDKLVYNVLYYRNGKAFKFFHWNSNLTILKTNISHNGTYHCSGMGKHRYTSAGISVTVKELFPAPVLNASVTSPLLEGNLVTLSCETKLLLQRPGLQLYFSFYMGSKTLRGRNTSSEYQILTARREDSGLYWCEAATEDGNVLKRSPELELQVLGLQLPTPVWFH
# Description: (§1) Analysis of interaction between objective antibody and the FcγR was carried out using Biacore T100 (GE Healthcare). HBS-EP+ (GE Healthcare) was used as the running buffer, and the measurement temperature was set to 25° C. Chips produced by immobilizing the antigen peptide by the amine coupling method to a Series S Sencor Chip CM5 (GE Healthcare), or alternatively, chips produced by allowing preliminarily biotinylated antigen peptides to interact with and immobilize onto a Series S Sensor Chip SA (certified) (GE Healthcare) were used. Antibodies of interest were captured onto an antigen peptide-immobilized chip, and allowed to interact to each FcγR diluted with running buffer. To regenerate and repeatedly use the chip, the antibodies captured on the chip were washed off by reacting 10 mM glycine-HCl, pH 1.5.
# FcγRIa [2] = target: T1, FcγRIa; assay: SPR (Biacore), antibody captured on antigen-peptide chip, FcγRIa as analyte; binding activity relative to control GpH7-A5/GpH7-B3/GpL16-k0 (HeCon Ab) x100
# Description: as §1
Binder,Ho/Con_1a (FcγRIa [1]),He/Con_1a (FcγRIa [2])
B1,109 % of control (=100),–
B2,–,116 % of control (=100)
B3,105 % of control (=100),–
B4,–,105 % of control (=100)
B5,–,112 % of control (=100)
B6,–,106 % of control (=100)
B7,105 % of control (=100),–
B8,–,106 % of control (=100)
B9,104 % of control (=100),–
B10,–,112 % of control (=100)
B11,110 % of control (=100),–
B12,106 % of control (=100),–
B13,105 % of control (=100),–
B14,–,112 % of control (=100)
B15,101 % of control (=100),–
B16,110 % of control (=100),–
B17,–,117 % of control (=100)
B18,–,105 % of control (=100)
B19,105 % of control (=100),–
B20,–,106 % of control (=100)
B21,111 % of control (=100),–
B22,110 % of control (=100),–
B23,102 % of control (=100),–
B24,105 % of control (=100),–
B25,103 % of control (=100),–
B26,111 % of control (=100),–
